Assay [1] deals with T1, VEGF (UniProt P15692-9 27-147).
T1 construct: also called VEGF121
T1 sequence (looked up): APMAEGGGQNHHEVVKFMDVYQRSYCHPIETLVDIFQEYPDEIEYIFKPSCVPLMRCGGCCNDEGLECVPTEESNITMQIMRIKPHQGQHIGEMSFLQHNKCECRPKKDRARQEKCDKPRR
Nature of the assay: bridging ELISA, VEGF capture, biocytinamid-Cy5 detection; background signal. A general note: In an ELISA, binding on a coated surface is turned into a signal by an enzyme label.

The target of assay [2] is T1, VEGF. Nature of the assay: bridging ELISA on exchange reaction mix; VEGF capture, biocytinamid-Cy5 detection; input 1.3 µM; highest value of the assay = 100%.
Assay [3] deals with T1, VEGF. The assay can be described thus: bridging ELISA, VEGF capture, biocytinamid-Cy5 or digoxygenin-Cy5 detection; background signal.
Assay [4] addresses T1, VEGF. Nature of the assay: bridging ELISA on exchange reaction mix; VEGF capture, digoxygenin-Cy5 detection; input 1.3 µM; highest value of the assay = 100%.
Assay [5] deals with T1, VEGF. The assay can be described thus: bridging ELISA, VEGF capture, digoxygenin-Cy5 detection; background signal.

B1: anti-bio/anti-fluos bsAb (bio 2/3-IgG with E357K MHCFcRP x fluos 2/3-IgG with K370E MHCFcRP) (bispecific antibody)
heavy 1: not shown
light 1: DIQMTQSPSSLSASVGDRVTITCRASGNIHNYLSWYQQKPGKVPKLLIYSAKTLADGVPSRFSGSGSGTDFTLTISSLQPEDVATYYCQHFWSSIYTFGQGTKLEIKRTVAAPSVFIFPPSDEQLKSGTASVVCLLNNFYPREAKVQWKVDNALQSGNSQESVTEQDSKDSTYSLSSTLTLSKADYEKHKVYACEVTHQGLSSPVTKSFNRGEC
heavy 2: not shown
light 2: DIVMTQTPLSLSVTPGQPASISCKSSQSLVHSNGNTYLRWYLQKPGQSPKVLIYKVSNRVSGVPDRFSGSGSGTDFTLKISRVEAEDVGVYYCSQSTHVPWTFGQGTKLEIKRTVAAPSVFIFPPSDEQLKSGTASVVCLLNNFYPREAKVQWKVDNALQSGNSQESVTEQDSKDSTYSLSSTLTLSKADYEKHKVYACEVTHQGLSSPVTKSFNRGEC
notes: Product of the 2/3-IgG exchange reaction, assayed as reaction mix; also called bio fluos
On to B1, for which, in the assay with VEGF [1], the binding result is recorded as “no binding (tested: input molecule concentration 1.3 µM)”. The same molecule returned a relative signal intensity with VEGF [2] of 9%.

B2: anti-bio/anti-dig bsAb (bio 2/3-IgG with E357K MHCFcRP x dig 2/3-IgG with K370E MHCFcRP) (bispecific antibody)
heavy 1: not shown
light 1: DIQMTQSPSSLSASVGDRVTITCRASGNIHNYLSWYQQKPGKVPKLLIYSAKTLADGVPSRFSGSGSGTDFTLTISSLQPEDVATYYCQHFWSSIYTFGQGTKLEIKRTVAAPSVFIFPPSDEQLKSGTASVVCLLNNFYPREAKVQWKVDNALQSGNSQESVTEQDSKDSTYSLSSTLTLSKADYEKHKVYACEVTHQGLSSPVTKSFNRGEC
heavy 2: QVQLVESGGGLVKPGGSLRLSCAASGFTFSDYAMSWIRQAPGKGLEWVSSINIGATYIYYADSVKGRFTISRDNAKNSLYLQMNSLRAEDTAVYYCARPGSPYEYDKAYYSMAYWGQGTTVTVSSASTKGPSVFPLAPSSKSTSGGTAALGCLVKDYFPEPVTVSWNSGALTSGVHTFPAVLQSSGLYSLSSVVTVPSSSLGTQTYICNVNHKPSNTKVDKKVEPKSC
light 2: not shown
notes: Product of the 2/3-IgG exchange reaction, assayed as reaction mix; also called bio dig; not shown: residue limits no
Turning to B2, in the assay with VEGF [3], the binding result is recorded as “no binding (tested: input molecule concentration 1.3 µM)”. The values for the relative signal intensity with VEGF [4] and with VEGF [2] were 6.2% and 9.3%, respectively.

B3: anti-PDGF/anti-bio bsAb (PDGF 2/3-IgG with E357K MHCFcRP x bio 2/3-IgG with K370E MHCFcRP) (bispecific antibody)
heavy 1: EVQLVESGGGLVQPGGSLRLSCAASGFTFSSYWMSWVRQAPEKGLEWVSTISDGGGLTYYADSVKGRFTISRDNAKNSLYLQMNSLRAEDTAVYYCAESGGYTDWLFGYWGQGTLVTVSSASTKGPSVFPLAPSSKSTSGGTAALGCLVKDYFPEPVTVSWNSGALTSGVHTFPAVLQSSGLYSLSSVVTVPSSSLGTQTYICNVNHKPSNTKVDKKVEPKSC
light 1: not shown
heavy 2: not shown
light 2: DIQMTQSPSSLSASVGDRVTITCRASGNIHNYLSWYQQKPGKVPKLLIYSAKTLADGVPSRFSGSGSGTDFTLTISSLQPEDVATYYCQHFWSSIYTFGQGTKLEIKRTVAAPSVFIFPPSDEQLKSGTASVVCLLNNFYPREAKVQWKVDNALQSGNSQESVTEQDSKDSTYSLSSTLTLSKADYEKHKVYACEVTHQGLSSPVTKSFNRGEC
notes: Product of the 2/3-IgG exchange reaction, assayed as reaction mix; also called PDGF bio; not shown: residue limits no
As to B3, in the assay with VEGF [1], the binding result is on record as “no binding (tested: input molecule concentration 1.3 µM)”. For the same molecule, the relative signal intensity with VEGF [2] turned out to be 10.5%.

B4: anti-dig/anti-bio bsAb (dig 2/3-IgG with E357K MHCFcRP x bio 2/3-IgG with K370E MHCFcRP) (bispecific antibody)
heavy 1: QVQLVESGGGLVKPGGSLRLSCAASGFTFSDYAMSWIRQAPGKGLEWVSSINIGATYIYYADSVKGRFTISRDNAKNSLYLQMNSLRAEDTAVYYCARPGSPYEYDKAYYSMAYWGQGTTVTVSSASTKGPSVFPLAPSSKSTSGGTAALGCLVKDYFPEPVTVSWNSGALTSGVHTFPAVLQSSGLYSLSSVVTVPSSSLGTQTYICNVNHKPSNTKVDKKVEPKSC
light 1: not shown
heavy 2: not shown
light 2: DIQMTQSPSSLSASVGDRVTITCRASGNIHNYLSWYQQKPGKVPKLLIYSAKTLADGVPSRFSGSGSGTDFTLTISSLQPEDVATYYCQHFWSSIYTFGQGTKLEIKRTVAAPSVFIFPPSDEQLKSGTASVVCLLNNFYPREAKVQWKVDNALQSGNSQESVTEQDSKDSTYSLSSTLTLSKADYEKHKVYACEVTHQGLSSPVTKSFNRGEC
notes: Product of the 2/3-IgG exchange reaction, assayed as reaction mix; also called dig bio; not shown: residue limits no
Take B4: the binding result with VEGF [3] is on record as “no binding (tested: input molecule concentration 1.3 µM)”. The relative signal intensity turned out to be 6.2% in the assay with VEGF [4] and 9% with VEGF [2].

B5: anti-fluos/anti-dig bsAb (fluos 2/3-IgG with E357K MHCFcRP x dig 2/3-IgG with K370E MHCFcRP) (bispecific antibody)
heavy 1: not shown
light 1: DIVMTQTPLSLSVTPGQPASISCKSSQSLVHSNGNTYLRWYLQKPGQSPKVLIYKVSNRVSGVPDRFSGSGSGTDFTLKISRVEAEDVGVYYCSQSTHVPWTFGQGTKLEIKRTVAAPSVFIFPPSDEQLKSGTASVVCLLNNFYPREAKVQWKVDNALQSGNSQESVTEQDSKDSTYSLSSTLTLSKADYEKHKVYACEVTHQGLSSPVTKSFNRGEC
heavy 2: QVQLVESGGGLVKPGGSLRLSCAASGFTFSDYAMSWIRQAPGKGLEWVSSINIGATYIYYADSVKGRFTISRDNAKNSLYLQMNSLRAEDTAVYYCARPGSPYEYDKAYYSMAYWGQGTTVTVSSASTKGPSVFPLAPSSKSTSGGTAALGCLVKDYFPEPVTVSWNSGALTSGVHTFPAVLQSSGLYSLSSVVTVPSSSLGTQTYICNVNHKPSNTKVDKKVEPKSC
light 2: not shown
notes: Product of the 2/3-IgG exchange reaction, assayed as reaction mix; also called fluos dig; not shown: residue limits no
In the case of B5, in the assay with VEGF [5], the binding result is recorded as “no binding (tested: input molecule concentration 1.3 µM)”. The molecule further returned a relative signal intensity in the assay with VEGF [4] of 6.3%.

B6: anti-fluos/anti-bio bsAb (fluos 2/3-IgG with E357K MHCFcRP x bio 2/3-IgG with K370E MHCFcRP) (bispecific antibody)
heavy 1: not shown
light 1: DIVMTQTPLSLSVTPGQPASISCKSSQSLVHSNGNTYLRWYLQKPGQSPKVLIYKVSNRVSGVPDRFSGSGSGTDFTLKISRVEAEDVGVYYCSQSTHVPWTFGQGTKLEIKRTVAAPSVFIFPPSDEQLKSGTASVVCLLNNFYPREAKVQWKVDNALQSGNSQESVTEQDSKDSTYSLSSTLTLSKADYEKHKVYACEVTHQGLSSPVTKSFNRGEC
heavy 2: not shown
light 2: DIQMTQSPSSLSASVGDRVTITCRASGNIHNYLSWYQQKPGKVPKLLIYSAKTLADGVPSRFSGSGSGTDFTLTISSLQPEDVATYYCQHFWSSIYTFGQGTKLEIKRTVAAPSVFIFPPSDEQLKSGTASVVCLLNNFYPREAKVQWKVDNALQSGNSQESVTEQDSKDSTYSLSSTLTLSKADYEKHKVYACEVTHQGLSSPVTKSFNRGEC
notes: Product of the 2/3-IgG exchange reaction, assayed as reaction mix; also called fluos bio
On to B6, for which, in the assay with VEGF [1], the binding result is “no binding (tested: input molecule concentration 1.3 µM)”. In the assay with VEGF [2], this molecule yielded a relative signal intensity of 10.2%.

B7: anti-dig/anti-fluos bsAb (dig 2/3-IgG with E357K MHCFcRP x fluos 2/3-IgG with K370E MHCFcRP) (bispecific antibody)
heavy 1: QVQLVESGGGLVKPGGSLRLSCAASGFTFSDYAMSWIRQAPGKGLEWVSSINIGATYIYYADSVKGRFTISRDNAKNSLYLQMNSLRAEDTAVYYCARPGSPYEYDKAYYSMAYWGQGTTVTVSSASTKGPSVFPLAPSSKSTSGGTAALGCLVKDYFPEPVTVSWNSGALTSGVHTFPAVLQSSGLYSLSSVVTVPSSSLGTQTYICNVNHKPSNTKVDKKVEPKSC
light 1: not shown
heavy 2: not shown
light 2: DIVMTQTPLSLSVTPGQPASISCKSSQSLVHSNGNTYLRWYLQKPGQSPKVLIYKVSNRVSGVPDRFSGSGSGTDFTLKISRVEAEDVGVYYCSQSTHVPWTFGQGTKLEIKRTVAAPSVFIFPPSDEQLKSGTASVVCLLNNFYPREAKVQWKVDNALQSGNSQESVTEQDSKDSTYSLSSTLTLSKADYEKHKVYACEVTHQGLSSPVTKSFNRGEC
notes: Product of the 2/3-IgG exchange reaction, assayed as reaction mix; also called dig fluos; not shown: residue limits no
In the case of B7, the binding result with VEGF [5] is “no binding (tested: input molecule concentration 1.3 µM)”. The molecule also had a relative signal intensity with VEGF [4] of 6.7%.

B8: anti-bio/anti-PDGF bsAb (bio 2/3-IgG with E357K MHCFcRP x PDGF 2/3-IgG with K370E MHCFcRP) (bispecific antibody)
heavy 1: not shown
light 1: DIQMTQSPSSLSASVGDRVTITCRASGNIHNYLSWYQQKPGKVPKLLIYSAKTLADGVPSRFSGSGSGTDFTLTISSLQPEDVATYYCQHFWSSIYTFGQGTKLEIKRTVAAPSVFIFPPSDEQLKSGTASVVCLLNNFYPREAKVQWKVDNALQSGNSQESVTEQDSKDSTYSLSSTLTLSKADYEKHKVYACEVTHQGLSSPVTKSFNRGEC
heavy 2: EVQLVESGGGLVQPGGSLRLSCAASGFTFSSYWMSWVRQAPEKGLEWVSTISDGGGLTYYADSVKGRFTISRDNAKNSLYLQMNSLRAEDTAVYYCAESGGYTDWLFGYWGQGTLVTVSSASTKGPSVFPLAPSSKSTSGGTAALGCLVKDYFPEPVTVSWNSGALTSGVHTFPAVLQSSGLYSLSSVVTVPSSSLGTQTYICNVNHKPSNTKVDKKVEPKSC
light 2: not shown
notes: Product of the 2/3-IgG exchange reaction, assayed as reaction mix; also called bio PDGF; not shown: residue limits no
For B8, the binding result in the assay with VEGF [1] is “no binding (tested: input molecule concentration 1.3 µM)”. In the assay with VEGF [2], this molecule displayed a relative signal intensity of 10.1%.
